# Measured values: US20180044415A1 (AbbVie / Abbott, published 2018)
# T1: human DLL3 (immobilized human DLL3 or h293-hDLL3 cells) (human, UniProt Q9NYJ7 27-492, limits assumed)
# T1 construct: the sentence says 'immobilized human DLL3 or h293-hDLL3 cells'
# T1 sequence: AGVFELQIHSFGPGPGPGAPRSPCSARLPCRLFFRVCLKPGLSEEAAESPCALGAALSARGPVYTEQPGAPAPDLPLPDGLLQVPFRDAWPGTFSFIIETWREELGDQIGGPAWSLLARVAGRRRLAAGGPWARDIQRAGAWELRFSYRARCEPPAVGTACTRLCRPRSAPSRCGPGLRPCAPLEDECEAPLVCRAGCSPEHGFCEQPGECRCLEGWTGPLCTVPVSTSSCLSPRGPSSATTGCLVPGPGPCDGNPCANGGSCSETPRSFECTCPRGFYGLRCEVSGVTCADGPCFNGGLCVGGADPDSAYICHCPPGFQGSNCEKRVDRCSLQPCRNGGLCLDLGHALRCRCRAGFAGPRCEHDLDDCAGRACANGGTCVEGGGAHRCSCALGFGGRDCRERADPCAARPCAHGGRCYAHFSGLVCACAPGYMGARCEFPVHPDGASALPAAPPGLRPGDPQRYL
# Target: T1, human DLL3 (immobilized human DLL3 or …)
# Test: hybridoma screening on immobilized human DLL3 or on h293-hDLL3 cells
row,Binder,binding result
1,"SC16.15 (antibody, V domains shown, murine mAb; variable regions only) VH: QVQLQQSGAELAKPGASVKMSCKASGYTFTRYWIHWIKQRPGQGLEWIGYINPTTVYTEFNQNFKDKATLTADKSSTTASMQLSSLTSEDSAVYYCARGGSNFFDYWGQGTTLTVSS VL: DIQMTQSPASLAASVGETVAITCRASENIYYNLAWYQQKQGKSPQLLIYTANSLEDGVPSRFSGSGSGTQYSLKINSMQPEDSATYFCKQAYDVPPTFGGGTKLEIK",binds
2,"SC16.7 (antibody, V domains shown, murine mAb; variable regions only) VH: EVQLQQSGPELVKPGASVKISCKASGYSFTGYKMHWVKQSHVKSLEWIGRINPYNGATSYNQNFKDKATLTVDKSSSTAYMDLHSLTSEDSAVYFCARGDYRYDWFAYWGQGTLVTVSA VL: NIMMTQSPSSLAVSAGEKVTMSCKSSQSVLYSSNQKNYLAWYQQKPGQSPKLLIYWASTRESGVPDRFTGSGSGTDFTLTISTVQVEDLAVYYCHQYLSSWTFGGGTKLEIK",binds
3,"SC16.8 (antibody, V domains shown, murine mAb; variable regions only) VH: QAQLQQSGAELVRPGTSVKVSCKASGYAFTNYLIEWVKQRPGQGLEWIGVINPGTGGTNYNENFKGKATLTADKSSSTAYMQLSSLTSDDSAVYFCARSPYDYHEGAMDYWGQGTSVTVSS VL: EIQMTQSPSSMSASLGDRITITCQATQDIVKNLNWYQQKPGKPPSFLIYYAIELAEGVPSRFSGSGSGSDYSLTISNLESEDFADYYCLQFYEFPFTFGAGTKLELK",binds
4,"SC16.143 (antibody, V domains shown, murine mAb; variable regions only) VH: QVQLQQSGPELVKPGASVRISCKASGYTFTSYYIHWVKQRPGQGLEWIGWIYPGNGNTKYNEKFKGKATLTADKSSSTAYMQISSLTSEDSAVYFCARERWLLLWFAYWGQGTLVTVSA VL: DVLMTQTPLSLPVSLGDQASISCRSSQSIVHSNGNTYLEWYLQKPGQSPKLLIYKVSNRFSGVPDRFSGSGSGTDFTLKISRVEAEDLGVYYCFQGSHVPLTFGAGTKLELK",binds
5,"SC16.148 (antibody, V domains shown, murine mAb; variable regions only) VH: QIQLVQSGPELKKPGETVKISCKASGYTLTNYGMNWVKQAPGKGLKWMGWINTYTGEPTYADDFKGRFAFSLETSARIVYLQINNLKNEDTATYFCAKYEAHEGFVYWGQGTLVTVSA VL: QIVLTQSPAIMSASPGEKVTMTCSASSSVSYMYWYQQKPGSSPRLLIYDTSNLASGVPVRFSGSGSGTSYSLTISRMEAEDTATYYCQEWSNNPLTFGDGTKLELK",binds
6,"SC16.18 (antibody, V domains shown, murine mAb; variable regions only) VH: EVKLEESGGGLVQPGESMKLSCAASGFTFSDAWMDWVRQSPEKGLEWVAEIRNKANNHATYYAESVKGKFTISRDDSKSRVYLQMNNLRAADTGIYYCTAYSNFAYWGQGTLVTVST VL: DIQMTQTTSSLSASLGDRVTISCRASQNIINYLNWYQQKPDGTVKLLIYYTSRLHSGVPSRFSGSGSGTDYSLTISNLEPEDIATYYCQQYSERPYTFGGGTKLEIK",binds
7,"SC16.5 (antibody, V domains shown, murine mAb; variable regions only) VH: QVTLKESGPGILQPSQTLSLTCSFSGFSLSTSGMGVGWIRQPSGEGLEWLADIWWDDNKYYNPSLKSRLTISKDTSSNQVFLKITSVDTADTATYYCARRVNYVYDPYYAMDYWGQGTSVTVSS VL: QIVLTQSPAIMSASPGEKVTMTCSASSSVSYMHWYQQKSGTSPKRWIYDTSKLASGVPARFSGSGSGTSYSLTISSMEAEDAATYYCQQWTRNPLTFGAGTKLELK",binds
8,"SC16.25 (antibody, V domains shown, murine mAb; variable regions only) VH: QVTLKESGPGILQPSQTLSLTCSFSGFSLSTSGMGVGWIRQPSGEGLEWLTDIWWDDNKYYNPSLKSRLTISKDTSSNQVFLNITSVDTADTATYYCARRVNYYYDPYYAMDYWGQGTSVTVSS VL: QIVLTQSPAIMSASPGEKVTMTCSASSSVSYMHWYQQKSGTSPKRWIYDSSKLASGVPARFSGSGSGTSYSLTISSMEAEDAATYYCQQWSSNPLTFGAGTKLELK",binds
9,"SC16.126 (antibody, V domains shown, murine mAb; variable regions only) VH: QVQMKESGPGLVAPSQSLSITCTVSGSSLTNYGVHWVRQPPGKGLEWLGVIWAGGSTNYNSALMSRLSISKDNSKSQVFLKMNSLQTDDTAMYYCARDWEGWFAYWGQGTLVTVSA VL: DIQMNQSPSSLSASLGDTITITCHASQNINVWLSWYQQKPGNIPKLLIYKASNLHTGVPSRFSGSGSGTGFTLTISSLQPEDIATYYCQQGQSYPFTFGSGTKLEIK",binds
10,"SC16.149 (antibody, V domains shown, murine mAb; variable regions only) VH: QVQLKESGPGLVAPSQSLSITCAVSGFSLTSFGVHWVRQPPGKGLEWLGVIWAGGSTNYYSALMSRLSISIDNSKSQVFLKMNSLQTDDTAMYYCARDWEGWFAYWGQGTLVTVSA VL: DIQMNQSPSSLSASLGDTITITCHASQNINVWLSWYQQKPGNIPKLLIYKASHLHTGVPSRLSGSGSGTGFTLTISSLQPEDIATYYCQQGQSYPFTFGSGTTLEIK",binds

# Other lines, results leading:
row,binding result,Binder
1,binds,"SC16.11 (antibody, V domains shown, murine mAb; variable regions only) VH: QIQLVQSGPELKKPGETVKISCKASGYTFTDYSMHWVKQAPGKGLKWMGWINTETVEPTYADDFMGRFAFSLETSASTAFLQINNLENEDTATYFCARFGSYAMDYWGQGTSVTVSS VL: not shown"
2,binds,"SC16.144 (antibody, V domains shown, murine mAb; variable regions only) VH: QIQLVQSGPELKKPGETVKISCKASGYTFTNYGMNWVKQAPGKGLKWVGWINTYTGEPTYADDFKGRFAFSLETSASTAYLQIDNLKNEDTATYFCARVGDYVGFDYWGQGTTLTVSS VL: SIVMTQTPKFLLVSAGDRVTITCKASQSVSNDVGWYQQKPGQSPKLLIYYASNRYNGVPDRFTGSGYGTDFTFTISTVQAEDLAVYFCQQDYSSPWTFGGGTKLEIK"
3,binds,"SC16.3 (antibody, V domains shown, murine mAb; variable regions only) VH: QVTLKESGPGILQPSQTLSLTCSFSGFSLSTSGMGVGWIRQPSGKGLEWLAHIWWDDVKRYNPALKSRLTISKDTSSSQVFLKIASVDTADTATYYCARIADYGGDYYAMDYWGQGTSVTVSS VL: QIVLTQSPAIMSVSLGERVTMTCTASSSVSSSYLHWYQQKPGSSPKLWIYSTSNLASGVPARFSGSGSGTSYFFTISSMEAEDAATYYCHQYHRSPFTFGAGTKLKIR"
4,binds,"SC16.10 (antibody, V domains shown, murine mAb; variable regions only) VH: QVTLKESGPGILQSSQTLSLTCSFSGFSLSTSGMGVGWIRQPSGKGLEWLAHIWWDDVKRYNPVLKSRLTISKDTSSSQVFLKIASVDTADTATYYCARLVDDLYYFDYWGQGTTLTVSS VL: QIVLTQSPAIMSASLGERVTMTCTASSSVSSSYLHWYQQKPGSSPKLWIYSTSNLASGVPTRFSGSGSGTSYSLTISSMEAEDAATYYCHQYHRSPFTFGSGTKLEIK"
5,binds,"SC16.147 (antibody, V domains shown, murine mAb; variable regions only) VH: QIQLVQSGPELTKPGETVKISCKASGYTFTDYSLHWVKQALGKGLKWMGWINTETGEPAYADDFKGRFAFSLETSASTAYLQINDLKNEDTTTYFCGIYDGYAMDYWGQGTSVTVSS VL: DIQMTQTASSLSASLGDRVTISCRASQDINNYLNWYQQKPDGTVKLLIYYTSRLHSGVPSRFSGSGSGTDYSLTISILEQEDIATYFCQQGDTLPWTFGGGTKLEIK"
6,binds,"SC16.4 (antibody, V domains shown, murine mAb; variable regions only) VH: QIQLVQSGPELKKPGETVKISCKASGYTFTDYSMHWVKQAPGKGLKWMGWINTETGEPGYADDFKGRFAFSLETSASTAYLQINNLKNEDTATYFCARYDGYAMDYWGQGTSVTVSS VL: DIQMTQTTSSLSASLGDRVTISCRASQDISNYLNWYQQKPDGTVKLLIYYTSRLHSGVPSRFSGSGSGTDYSLTISNLELEDIATYFCQQGDMLPWTFGGGTKLEIK"
